In test [1] the target is Full-length MmRAD51D (yeast two-hybrid fusion) (mouse) (UniProt O55230). In words: two-hybrid.
The target in test [2] is T1, Full-length MmRAD51D (yeast two-hybrid fusion) (mouse, UniProt O55230 1-329).
T1 sequence (looked up): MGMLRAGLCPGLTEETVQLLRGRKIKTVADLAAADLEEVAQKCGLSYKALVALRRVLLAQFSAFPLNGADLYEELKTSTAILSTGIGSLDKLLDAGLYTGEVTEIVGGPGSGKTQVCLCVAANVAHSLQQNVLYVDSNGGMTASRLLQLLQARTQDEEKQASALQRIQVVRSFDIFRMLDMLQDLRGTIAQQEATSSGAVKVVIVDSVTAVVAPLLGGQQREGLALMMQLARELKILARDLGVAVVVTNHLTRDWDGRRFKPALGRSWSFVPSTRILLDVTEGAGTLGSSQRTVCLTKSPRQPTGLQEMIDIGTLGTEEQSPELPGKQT
In words: two-hybrid.

In test [1], “MmRnf138-Δ5 (RNF138 splice variant with a deletion of exon 5, yeast two-hybrid fusion) (natural protein)” had a fold decrease in the level of interaction against full-length RNF138 of 8 fold.
In test [1], “MmRnf138-Δ7 (RNF138 splice variant with a deletion of exon 7, yeast two-hybrid fusion) (natural protein)” displayed a fold decrease in the level of interaction against full-length RNF138 of 3 fold.

B1: RNF138 (yeast two-hybrid fusion) (natural protein, mouse, UniProt Q9CQE0-1 1-245, looked up)
chain: MSEELSAATSYTEDDFYCPVCQEVLKTPVRTAACQHVFCRKCFLTAMRESGIHCPLCRGSVTRRERACPERALDLENIMRRFSGSCRCCSKKIKFYRMRHHYKSCKKYQDEYGVSSVIPNFKISQDSVRSSNRSETSASDNTETYQEDTSSSGHPTFKCPLCQESNFTRQRLLDHCNSNHLFQIVPVTCPICVSLPWGDPSQITRNFVSHLNQRHQFDYGEFVNLQLDEETQYQTAVEESFQVNM
In the case of B1, the “β-galactosidase level relative to the DBD-RAD51D:AD-RAD51C positive control” value in test [2] came to 79%.

The values are drawn from publication PMC4884500 (DNA repair, 2016).
